According to publication PMC6776665:
pKd: −log10 of the molar value.

Columns and labels:
[1] = biological target: GST-tagged TRIM21-RING (residue 1-85) (UniProt P19474); assay: SPR; BIAcore T200; GST-T21-R captured on an anti-GST antibody-coated CM5 chip (GST on the reference channel); Ube2N or Ube2N~Ub injected in 1:2 dilution series from 80 µM; 30 µl/min; 20 mM Tris-HCl pH 8.0, 150 mM NaCl, 1 mM DTT; 25 °C; KD from equilibrium responses, single-site model
TRIM21-RING^M10E = TRIM21-RING^M10E (UniProt P19474); assay: NMR titration; Ube2N^C87K/K92A titrated into 100 µM 15N-labelled T21-R^M10E constructs; KD from fits of chemical shift perturbations (five peaks); 25 °C; 50 mM deuterated Tris pH 7.0, 150 mM NaCl, 1 mM deuterated DTT
TRIM21-RING^M10E/E12R = TRIM21-RING^M10E/E12R (UniProt P19474); assay: as above

pKd [1] | koff [1] [s⁻¹] | pKd (TRIM21-RING^M10E) | pKd (TRIM21-RING^M10E/E12R) | Substance
4.37 | > 1 |  |  | Ube2N (as used in the SPR experiment) (enzyme)
 |  | 4.82 | 4.24 | Ube2N^C87K/K92A (enzyme)
5.30 | 0.15 |  |  | isopeptide-linked Ube2N^C87K/K92A~ubiquitin conjugate (from UniProt P0CG48 1-76) (complex)
